The results in this text go back to article PMC10195141 (Acta Biochimica et Biophysica Sinica, 2023).

The target in test [1] is T1, M. mulatta Gal-10 (Macaca mulatta, UniProt A0AA82WNZ0).
T1 sequence (A0AA82WNZ0 4-142): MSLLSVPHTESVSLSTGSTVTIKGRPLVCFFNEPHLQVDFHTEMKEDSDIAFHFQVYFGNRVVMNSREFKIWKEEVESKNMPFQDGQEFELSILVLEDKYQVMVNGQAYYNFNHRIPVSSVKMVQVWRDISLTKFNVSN
Briefly: inhibition of hemagglutination of chicken erythrocytes. Type of test: cell-based. To be noted: 10 mM Tris-HCl, 150 mM NaCl, pH 7.5, on ice, 60 min; carbohydrate binding site.

Test [2] deals with Macaca mulatta galectin-10 (Macaca mulatta). Description: SEC. (In general: SEC sorts molecules by how far they enter the pores of the column.)
Test [3] addresses Macaca fascicularis galectin-10 (Macaca fascicularis). Briefly: SEC.

In brackets after ≈: the same amount, converted by molar mass.

Consider `OC[C@H]1O[C@@H](O[C@H]2[C@H](O)[C@@H](O)C(O)O[C@@H]2CO)[C@H](O)[C@@H](O)[C@H]1O` (stereo partly drawn) [lactose], for which the MIC in test [1] was 6.25 mM (≈ 2140 µg/mL).

Usually stoichiometry N stands for the number of molecules, sites or subunits per partner or assembly. As for “Macaca mulatta galectin-10 (natural protein)”, the stoichiometry N in test [2] turned out to be 2.

In test [3], “Macaca fascicularis galectin-10 (natural protein)” displayed a stoichiometry N of 2.
